This is an account of results in the supplement of paper PMC10126150.

± gives the standard deviation of the averaged measurements.
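Further: ATP exposure 15 min at 22 °C before imaging.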

The series relates to ATP. The series can be described thus: switch fluorescence ratio, 500 uM ATP over buffer (Cy3 cluster intensity, sum of 5 cycles each) (fold (ratio)); higher = stronger signal-on switching upon ATP binding; sequences stand for … in TCGTCGGCAGCGTCAGATGTGTATAAGAGACAGTTTTTTTTTTTTTTTTTTTTTTTTT…TC. The settings on record: aptamer strand: ATP DNA aptamer (quencher-CACCTGGGGGAGTATTGCGGAGGAAGG + anchor), 100 nM annealed; ATP concentration: 500 uM. The gist of the method: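 The fluorescence ratio divides summed target-cycle Cy3 intensity by summed buffer-cycle Cy3 intensity for each cluster and is averaged per switch-domain sequence. Cy3-labelled switching-strand clusters on a modified Illumina MiSeq flow-cell were annealed to 100 nM quencher-labelled ATP aptamer, then imaged in selection buffer and again after 15 min with 500 uM ATP at 22 °C. Five such cycles were run, with NaOH stripping and re-annealing between them, and clusters outside 100-1000 RFU were excluded.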
As to ACTGGGTTTG, the switch fluorescence ratio worked out at 1.001 ± 0.0043.
For CGGTGATATT the value was 1.03 ± 0.052.
For GTTAGCGCTT the value was 0.974 ± 0.025; for AAAAAATACG, 1.09 ± 0.091; for TCATTGGACT, 0.98 ± 0.023.
As for AAAAGGACGG, the switch fluorescence ratio worked out at 1.044 ± 0.0036.
As to TCCAGGGGCA, the switch fluorescence ratio came out at 1.67 ± 0.1.
With GAAACTTAGG, the switch fluorescence ratio turned out to be 1.01 ± 0.019.
On to TTTTGAATTG, for which the switch fluorescence ratio worked out at 0.9841 ± 0.005.
For AAGTGCTTGA, the switch fluorescence ratio is 1 ± 0.069.
For ATGTTGAAGG the value was 1.03 ± 0.069; for TTATGGCTTC, 0.993 ± 0.029.
Take CCAGGGGCTT: the switch fluorescence ratio amounted to 1.31 ± 0.41.
For CTGTGCTGT the value was 1.005 ± 0.0062; for ATAGGGGCTA, 0.988 ± 0.02; for GAATGAACCA, 0.998 ± 0.049.
Take CACTAAAGAT: the switch fluorescence ratio amounted to 1.004 ± 0.0052.
Consider TTTGGCTTAA, for which the switch fluorescence ratio came out at 0.9962 ± 0.006.
In the case of GCGGGTCTGC, the switch fluorescence ratio amounted to 0.963 ± 0.028.
The figure for CGAGTATCTA is 0.993 ± 0.029; for TTGTGGGGAA it is 1.12 ± 0.2; for TAAGGGAAAT it is 1 ± 0.065.
TCTAAAAGTG: the switch fluorescence ratio is 0.9752 ± 0.0022.
Consider CTAGTTAGGC, for which the switch fluorescence ratio was 0.9844 ± 0.0091.
As for TTGAAGGGTG, the switch fluorescence ratio was found to be 1.05 ± 0.11.
The figure for CCAGGGGCTG is 1.67 ± 0.89.
As to TTCGTTTCGA, the switch fluorescence ratio came out at 0.965 ± 0.042.
As for GCTCTAATTG, the switch fluorescence ratio is 1.008 ± 0.0058.
The figure for GTCTTTTTAA is 1.03 ± 0.032; for AGACGGGAAC it is 1 ± 0.022; for TCATTGTAAC it is 1.06 ± 0.023.
As for TCAATTTGTT, the switch fluorescence ratio is 0.992 ± 0.033.
Turning to GGTTTTAGTT, the switch fluorescence ratio stood at 0.986 ± 0.03.
Consider ATAGTAGTGG, for which the switch fluorescence ratio stood at 1.003 ± 0.0081.
The figure for TGCTCCAGTC is 1.094 ± 0.0067.
For the sequence AGTTGCGTCG, the switch fluorescence ratio came out at 0.997 ± 0.031.
As for TCTTGAGGGA, the switch fluorescence ratio was 1 ± 0.02.
For GTCCGCCTTG the value was 1.07 ± 0.011; for TTTGGGGGTA, 1.06 ± 0.068.
On to GGTTTAATTT, for which the switch fluorescence ratio was found to be 0.993 ± 0.026.
For AACGGTCTTT the value was 0.997 ± 0.014; for GGGAGCTACA, 1.02 ± 0.017; for TTAACGCGGA, 1.03 ± 0.011.
As for AGATCGACGC, the switch fluorescence ratio was determined as 1.19 ± 0.026.
The figure for GCTCTACTGG is 1.024 ± 0.0021; for CCAAGGGTGC it is 1.63 ± 0.11; for ATACGCGGGC it is 1.27 ± 0.038.
Take GAGGATTGTG: the switch fluorescence ratio worked out at 0.976 ± 0.012.
The figure for TTTTCGGGAT is 1.19 ± 0.42; for CATCGGTGTG it is 0.958 ± 0.047.
With CGATTCGTCT, the switch fluorescence ratio was 1.05 ± 0.05.
For TCCAATTTGA the value was 0.998 ± 0.012.
The figure for TCGGGAATCG is 0.983 ± 0.027.
For GTCAAATATG the value was 0.9678 ± 0.0028; for CTGTGGGTTG, 1 ± 0.042.
For the sequence CATTTTGTTG, the switch fluorescence ratio was 1.01 ± 0.024.
For GCGGAAGACG the value was 1.35 ± 0.6; for GATGTTTGAG, 0.991 ± 0.017; for AATCTCATAG, 1.01 ± 0.012.
With TTATTGATTT, the switch fluorescence ratio turned out to be 1.017 ± 0.0021.
Regarding AAGGGCTGCG, the switch fluorescence ratio was 0.98 ± 0.1.
The figure for TGGGGACTTG is 0.9782 ± 0.0015.
For AGGTCCGCTT the value was 1.32 ± 0.039.
In the case of GGGTAATGCA, the switch fluorescence ratio is 1.033 ± 0.0053.
For the sequence AATATGTATC, the switch fluorescence ratio amounted to 1.003 ± 0.0029.
For CTTAGTAATG, the switch fluorescence ratio came out at 1.05 ± 0.11.
